Measured values published in patent publication US20220306765A1 (SUZHOU TRANSCENTA THERAPEUTICS, published 2022).
Where two headings read alike, the source gives them in different places.

Experiments:
human CLDN18.2 [1] = biological target: T1, human CLDN18.2 (human); assay: FACS, NUGC4 cells
T1 construct: also called hCLDN18.2; Claudin-18 splice variant 2

human CLDN18.1 = biological target: T2, human CLDN18.1 (human, UniProt P56856 1-261); assay: FACS, HEK293-CLDN18.1 cells
T2 construct: on HEK293-CLDN18.1 cells; also called Claudin-18 splice variant 1; NP_057453.1
T2 sequence (P56856 whole entry, canonical isoform): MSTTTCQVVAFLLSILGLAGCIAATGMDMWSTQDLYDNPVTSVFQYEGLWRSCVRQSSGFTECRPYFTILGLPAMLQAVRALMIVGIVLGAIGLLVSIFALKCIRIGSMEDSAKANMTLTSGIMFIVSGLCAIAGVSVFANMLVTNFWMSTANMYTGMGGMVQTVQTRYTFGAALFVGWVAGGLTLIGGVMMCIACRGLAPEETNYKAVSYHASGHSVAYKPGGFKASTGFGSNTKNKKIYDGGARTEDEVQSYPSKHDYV

human CLDN18.2 [2] = biological target: T1, human CLDN18.2; assay: FACS, HEK293-CLDN18.2 cells
[3] = biological target: T3, human CLDN18.2-mRFP1, wild-type (human); assay: FACS, transfected HEK293, 10 µg/ml antibody
T3 construct: human CLDN18.2 (amino acid 1-261) fused to mRFP1 (amino acid 1-225), transiently expressed in HEK293 cells; also called wild-type human CLDN18.2-mRFP
Procedure: (§1) The transfected HEK293-CLDN18.2 or HEK293-CLDN18.1 cell were resuspended in PBS with 2% BSA at density of 10\hat{ }5/well, 100 μl/well. […] Next, cells were washed 3 times by FACS washing buffer and incubated with 100 μl/well goat anti-hIgG (H+L)-FITC (1:200 dilution) at 4° C. for another 30 min. Finally, cells were washed 3 times by FACS washing buffer and analyzed by Flow Cytometry. To analyze binding to CLDN18.2 transfected cells, the RFP positive cells were used for control gating.

human CLDN18.2-mRFP Q29M = human CLDN18.2-mRFP Q29M (human); assay: FACS, transfected HEK293, 10 µg/ml antibody;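 further: antibody binding read by flow cytometry with a FITC-labelled anti-human IgG secondary, gated on RFP-positive cells, each mutant signal expressed against wild-type CLDN18.2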
Chain of human CLDN18.2-mRFP Q29M (human) (chain, as listed by the source Q29M Q29M limits assumed): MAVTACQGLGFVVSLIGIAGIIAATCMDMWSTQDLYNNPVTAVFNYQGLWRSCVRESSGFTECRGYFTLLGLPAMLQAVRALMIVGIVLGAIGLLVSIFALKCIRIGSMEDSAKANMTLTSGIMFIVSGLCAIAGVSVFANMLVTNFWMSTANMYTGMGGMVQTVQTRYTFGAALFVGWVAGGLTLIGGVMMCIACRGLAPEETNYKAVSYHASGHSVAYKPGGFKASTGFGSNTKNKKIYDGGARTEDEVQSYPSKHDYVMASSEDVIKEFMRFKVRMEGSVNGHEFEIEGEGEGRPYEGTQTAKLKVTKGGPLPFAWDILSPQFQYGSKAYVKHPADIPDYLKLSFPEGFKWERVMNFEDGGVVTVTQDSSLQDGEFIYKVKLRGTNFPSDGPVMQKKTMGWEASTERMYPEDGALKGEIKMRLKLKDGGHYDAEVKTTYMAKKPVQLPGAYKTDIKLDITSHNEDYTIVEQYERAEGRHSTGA
Procedure: as §1

human CLDN18.2-mRFP N37D = human CLDN18.2-mRFP N37D (human); assay: FACS, transfected HEK293, 10 µg/ml antibody;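 further: antibody binding read by flow cytometry with a FITC-labelled anti-human IgG secondary, gated on RFP-positive cells, each mutant signal expressed against wild-type CLDN18.2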
Procedure: as §1

human CLDN18.2-mRFP A42S = human CLDN18.2-mRFP A42S (human); assay: FACS, transfected HEK293, 10 µg/ml antibody;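 further: antibody binding read by flow cytometry with a FITC-labelled anti-human IgG secondary, gated on RFP-positive cells, each mutant signal expressed against wild-type CLDN18.2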
Chain of human CLDN18.2-mRFP A42S (human) (chain, as listed by the source A42S A42S limits assumed): as the sequence (chain, as listed by the source Q29M Q29M limits assumed) above, with M29Q, A42S counted along it
Procedure: as §1

human CLDN18.2-mRFP N45Q = human CLDN18.2-mRFP N45Q (human); assay: FACS, transfected HEK293, 10 µg/ml antibody;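 further: antibody binding read by flow cytometry with a FITC-labelled anti-human IgG secondary, gated on RFP-positive cells, each mutant signal expressed against wild-type CLDN18.2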
Procedure: as §1

human CLDN18.2-mRFP Q47E = human CLDN18.2-mRFP Q47E (human); assay: FACS, transfected HEK293, 10 µg/ml antibody
Procedure: as §1

human CLDN18.2-mRFP E56Q = human CLDN18.2-mRFP E56Q (human); assay: FACS, transfected HEK293, 10 µg/ml antibody
Procedure: as §1

human CLDN18.2-mRFP G65P = human CLDN18.2-mRFP G65P (human); assay: FACS, transfected HEK293, 10 µg/ml antibody
Procedure: as §1

human CLDN18.2-mRFP L69I = human CLDN18.2-mRFP L69I (human); assay: FACS, transfected HEK293, 10 µg/ml antibody
Procedure: as §1

[4] = biological target: T3, human CLDN18.2-mRFP1, wild-type; assay: FACS, transfected HEK293, 10 µg/ml antibody; remark: listed apart in the source
Procedure: as §1
(§2) Subsequently, these plasmids of mutants and wild-type CLDN18.2-mRFP were transfected into HEK293 cell.

human CLDN18.2-mRFP T32A = human CLDN18.2-mRFP T32A (human); assay: FACS, transfected HEK293, 10 µg/ml antibody;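 further: antibody binding detected by flow cytometry with FITC-labelled anti-human IgG secondary, gated on RFP-positive cells, mutant signal relative to wild-type CLDN18.2-mRFP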
Chain of human CLDN18.2-mRFP T32A (human) (chain, as listed by the source T32A T32A limits assumed): as the sequence (chain, as listed by the source Q29M Q29M limits assumed) above, with M29Q, T32A counted along it
Procedure: as §1, §2

human CLDN18.2-mRFP D34A = human CLDN18.2-mRFP D34A (human); assay: FACS, transfected HEK293, 10 µg/ml antibody;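 further: antibody binding detected by flow cytometry with FITC-labelled anti-human IgG secondary, gated on RFP-positive cells, mutant signal relative to wild-type CLDN18.2-mRFP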
Chain of human CLDN18.2-mRFP D34A (human) (chain, as listed by the source D34A D34A limits assumed): as the sequence (chain, as listed by the source Q29M Q29M limits assumed) above, with M29Q, D34A counted along it
Procedure: as §1, §2

human CLDN18.2-mRFP Y36A = human CLDN18.2-mRFP Y36A (human); assay: FACS, transfected HEK293, 10 µg/ml antibody;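 further: antibody binding detected by flow cytometry with FITC-labelled anti-human IgG secondary, gated on RFP-positive cells, mutant signal relative to wild-type CLDN18.2-mRFP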
Procedure: as §1, §2

human CLDN18.2-mRFP T41A = human CLDN18.2-mRFP T41A (human); assay: FACS, transfected HEK293, 10 µg/ml antibody;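 further: antibody binding detected by flow cytometry with FITC-labelled anti-human IgG secondary, gated on RFP-positive cells, mutant signal relative to wild-type CLDN18.2-mRFP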
Procedure: as §1, §2

human CLDN18.2-mRFP V43A = human CLDN18.2-mRFP V43A (human); assay: FACS, transfected HEK293, 10 µg/ml antibody
Procedure: as §1, §2

human CLDN18.2-mRFP F44A = human CLDN18.2-mRFP F44A (human); assay: FACS, transfected HEK293, 10 µg/ml antibody
Procedure: as §1, §2

human CLDN18.2-mRFP N45A = human CLDN18.2-mRFP N45A (human); assay: FACS, transfected HEK293, 10 µg/ml antibody
Procedure: as §1, §2

human CLDN18.2-mRFP Y46A = human CLDN18.2-mRFP Y46A (human); assay: FACS, transfected HEK293, 10 µg/ml antibody
Chain of human CLDN18.2-mRFP Y46A (human) (chain, as listed by the source Y46A Y46A limits assumed): as the sequence (chain, as listed by the source Q29M Q29M limits assumed) above, with M29Q, Y46A counted along it
Procedure: as §1, §2

human CLDN18.2-mRFP W50A = human CLDN18.2-mRFP W50A (human); assay: FACS, transfected HEK293, 10 µg/ml antibody
Procedure: as §1, §2

human CLDN18.2-mRFP V54A = human CLDN18.2-mRFP V54A (human); assay: FACS, transfected HEK293, 10 µg/ml antibody
Procedure: as §1, §2

human CLDN18.2-mRFP R55A = human CLDN18.2-mRFP R55A (human); assay: FACS, transfected HEK293, 10 µg/ml antibody
Procedure: as §1, §2

human CLDN18.2-mRFP E56A = human CLDN18.2-mRFP E56A (human); assay: FACS, transfected HEK293, 10 µg/ml antibody
Chain of human CLDN18.2-mRFP E56A (human) (chain, as listed by the source E56A E56A limits assumed): as the sequence (chain, as listed by the source Q29M Q29M limits assumed) above, with M29Q, E56A counted along it
Procedure: as §1, §2

human CLDN18.2-mRFP S57A = human CLDN18.2-mRFP S57A (human); assay: FACS, transfected HEK293, 10 µg/ml antibody
Procedure: as §1, §2

human CLDN18.2-mRFP S58A = human CLDN18.2-mRFP S58A (human); assay: FACS, transfected HEK293, 10 µg/ml antibody
Procedure: as §1, §2

human CLDN18.2-mRFP T61A = human CLDN18.2-mRFP T61A (human); assay: FACS, transfected HEK293, 10 µg/ml antibody
Chain of human CLDN18.2-mRFP T61A (human) (chain, as listed by the source T61A T61A limits assumed): as the sequence (chain, as listed by the source Q29M Q29M limits assumed) above, with M29Q, T61A counted along it
Procedure: as §1, §2

human CLDN18.2-mRFP E62A = human CLDN18.2-mRFP E62A (human); assay: FACS, transfected HEK293, 10 µg/ml antibody
Procedure: as §1, §2

human CLDN18.2-mRFP R64A = human CLDN18.2-mRFP R64A (human); assay: FACS, transfected HEK293, 10 µg/ml antibody
Chain of human CLDN18.2-mRFP R64A (human) (chain, as listed by the source R64A R64A limits assumed): as the sequence (chain, as listed by the source Q29M Q29M limits assumed) above, with M29Q, R64A counted along it
Procedure: as §1, §2

human CLDN18.2-mRFP F67A = human CLDN18.2-mRFP F67A (human); assay: FACS, transfected HEK293, 10 µg/ml antibody
Procedure: as §1, §2

human CLDN18.2-mRFP T68A = human CLDN18.2-mRFP T68A (human); assay: FACS, transfected HEK293, 10 µg/ml antibody
Procedure: as §1, §2

human CLDN18.2-mRFP L69A = human CLDN18.2-mRFP L69A (human); assay: FACS, transfected HEK293, 10 µg/ml antibody
Procedure: as §1, §2

human CLDN18.2-mRFP M75A = human CLDN18.2-mRFP M75A (human); assay: FACS, transfected HEK293, 10 µg/ml antibody
Procedure: as §1, §2

human CLDN18.2-mRFP V79A = human CLDN18.2-mRFP V79A (human); assay: FACS, transfected HEK293, 10 µg/ml antibody
Chain of human CLDN18.2-mRFP V79A (human) (chain, as listed by the source V79A V79A limits assumed): as the sequence (chain, as listed by the source Q29M Q29M limits assumed) above, with M29Q, V79A counted along it
Procedure: as §1, §2

human CLDN18.2-mRFP R80A = human CLDN18.2-mRFP R80A (human); assay: FACS, transfected HEK293, 10 µg/ml antibody
Procedure: as §1, §2

B1: 59A9-C (antibody, human IgG1, V domains shown)
VH: QITQKESGPGILQPSQTLSLTCSLSGFSLSTYFIGVGWIRQPSGKGLEWLAHIWWNDNKYYNTALKSRLTISKDTSNNQVFLKIASVDTADTATYYCARMGSGAWFTYWGQGTLVTVSA
VL: DIVMTQSPSSLTVTAGEKVTMSCKSSQSLLNSGNQKNYLTWYQQKPGQPPKLLIYWASTRESGVPDRFTGSGSGTDFTLTISSVQAEDLAVYYCQNDYYYPLTFGSGTKLEIK
notes: also called chimeric 59A9
EC50 (human CLDN18.2 [1]): 19.1 µg/mL | binding result (human CLDN18.1): no binding | EC50 (human CLDN18.2 [2]): 1.35 µg/mL | binding percentage vs wild-type CLDN18.2 [3]: 100% | binding percentage vs wild-type CLDN18.2 (human CLDN18.2-mRFP Q29M): 90.4% | binding percentage vs wild-type CLDN18.2 (human CLDN18.2-mRFP N37D): 92.7% | binding percentage vs wild-type CLDN18.2 (human CLDN18.2-mRFP A42S): 90% | binding percentage vs wild-type CLDN18.2 (human CLDN18.2-mRFP N45Q): 65% | binding percentage vs wild-type CLDN18.2 (human CLDN18.2-mRFP Q47E): 87.5% | binding percentage vs wild-type CLDN18.2 (human CLDN18.2-mRFP E56Q): 52.7% | binding percentage vs wild-type CLDN18.2 (human CLDN18.2-mRFP G65P): 85.5% | binding percentage vs wild-type CLDN18.2 (human CLDN18.2-mRFP L69I): 106% | binding percentage vs wild-type CLDN18.2 [4]: 100% | binding percentage vs wild-type CLDN18.2 (human CLDN18.2-mRFP T32A): 85.6% | binding percentage vs wild-type CLDN18.2 (human CLDN18.2-mRFP D34A): 96.3% | binding percentage vs wild-type CLDN18.2 (human CLDN18.2-mRFP Y36A): 78% | binding percentage vs wild-type CLDN18.2 (human CLDN18.2-mRFP T41A): 41.6% | binding percentage vs wild-type CLDN18.2 (human CLDN18.2-mRFP V43A): 59.4% | binding percentage vs wild-type CLDN18.2 (human CLDN18.2-mRFP F44A): 70% | binding percentage vs wild-type CLDN18.2 (human CLDN18.2-mRFP N45A): 35.2% | binding percentage vs wild-type CLDN18.2 (human CLDN18.2-mRFP Y46A): 15% | binding percentage vs wild-type CLDN18.2 (human CLDN18.2-mRFP W50A): 5.05% | binding percentage vs wild-type CLDN18.2 (human CLDN18.2-mRFP V54A): 87.2% | binding percentage vs wild-type CLDN18.2 (human CLDN18.2-mRFP R55A): 49.7% | binding percentage vs wild-type CLDN18.2 (human CLDN18.2-mRFP E56A): 21.9% | binding percentage vs wild-type CLDN18.2 (human CLDN18.2-mRFP S57A): 77.2% | binding percentage vs wild-type CLDN18.2 (human CLDN18.2-mRFP S58A): 39.4% | binding percentage vs wild-type CLDN18.2 (human CLDN18.2-mRFP T61A): 51.6% | binding percentage vs wild-type CLDN18.2 (human CLDN18.2-mRFP E62A): 23.1% | binding percentage vs wild-type CLDN18.2 (human CLDN18.2-mRFP R64A): 51% | binding percentage vs wild-type CLDN18.2 (human CLDN18.2-mRFP F67A): 79.9% | binding percentage vs wild-type CLDN18.2 (human CLDN18.2-mRFP T68A): 71.3% | binding percentage vs wild-type CLDN18.2 (human CLDN18.2-mRFP L69A): 54.8% | binding percentage vs wild-type CLDN18.2 (human CLDN18.2-mRFP M75A): 73.6% | binding percentage vs wild-type CLDN18.2 (human CLDN18.2-mRFP V79A): 39.1% | binding percentage vs wild-type CLDN18.2 (human CLDN18.2-mRFP R80A): 13.6%
